The assay addresses low-molecular-weight fibrinogen fraction I-9 isolated from plasma (human) (UniProt P02671). The experiment in a line: co-purification.

Consider “latent TGF-β1 (TGF-β1 with its latency-associated protein) (from UniProt P01137 30-278) (complex)”, for which the fold less latent TGF-β than in fraction I-2 was determined as 8 fold.

The record behind these values is article PMC2871011.
